Measured values from the nanobody polyreactivity screen of Harvey et al. (2022).

assay: yeast display, Sf9 membrane polyspecificity reagent, FACS + sequencing; frameworks hold sequencing errors
Procedure, shortened: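 Using colony PCR, genes from sorted yeast display clones were amplified, then sequenced on MiSeq at 2 × 250 and filtered by CDR length. The clones had been stained with 10% biotinylated, detergent-solubilized Sf9 membrane reagent for 1 hour at 4 °C and sorted by FACS into low and high (top ~1%) gates on anti-HA and streptavidin fluorescence. Polyreactivity labels come from the gate of origin.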

Sequence | polyreactivity (PSR sort gate)
QVQLVESGAGLVQAGGSLRLSCADSGSTFQPYAMGWYRQAPGKEREFVATISGSAGSKYYADSVKGRFKISRDNAKNTVYLQKNSLKPEDTAVYYCNADSGWFGYDYWGQGTQVTVSS | low polyreactivity
QVQLVESGAGLVQAGGSLRLSCPASGYIFWWTALGWSRQQPGKERELVAGISWSGSTTYYADSVKGRFTISRDNAKNTVYLQMNSLNPEDTAVYYCNAADITLYDYDYWGQGTQVTVSS | low polyreactivity
QVQLVESGAGLVQAGVSLRLSCAASGSILTDSAMGWYIQAPGKERELVATISNGGSTNYADSVKGRFTISRDNAKNTVYLKMNSLKPEDTAVYYCNAEPGVPSWELDYWGQGTQVTVSS | low polyreactivity
QVQLVESGAGLVQARGSLRLSCAASGIILYVNAMGWYRQAPGKERELVAAISWGGGSTYYADSVKGRFTISRDNAKNNVYLQMNSLKPEDTAVYYCAAEFWSGYPTYTYDFWGQGTQVTVSS | low polyreactivity
QVQLVESGAGLVQEGGSLRLICAASGRTFRGSDMGWYSPAPGKERELVAAITSGGSTNYADSVKGRFTISRDNAKNTVYLHMNSLKPEDPAVYYCNRDTSKYGLWRYIYDYWGQGTQVNVSS | low polyreactivity
QVQLVESGEGLVQARGSLRLSCAASGYTFLGYAMGWYRQAPGKERELVAAINRSGSSTYYADSVKGRFTISRDNAKNTVYLQMNSLKPEDTAVYYCNARSGNRYGPRYDYWGQGTKVTVSS | high polyreactivity
QVQLVESGGALDQAGGSLRLSCAASGRIFKWYAKGWYRQAPGKERELVATISWSGGSTYYADSVKGRFTISRDNAKKTVYLQMNSLKPEDTAVYYCNADTWLALPGFDYWGQGTQVTVSS | high polyreactivity
QVQLVESGGALLQAGGSLRLSCAASGGTFDTYAMGWYRQAPGKERELDAVIRASGGDTYYADSVKGRFTISRDNAKNTVYLQMNSLKPEDTAVYYCAAVLPFKYDYWGQGTQVTVSS | low polyreactivity
QVQLVESGGALLQAGGSLRLSCSASGRIFSANAMGWYRPAPGKERELVAAITYSGATTYYADSVKGRFTISRDNAKNTVYLQMTSLKPEDTAVYDCAADAGYTHYTAEEEYWGQGTQVTVSS | low polyreactivity
QVQLVESGGALVQAGGILRLSCAASGRTFQYNVMGWYRQAPGKEREFVAAITWNGGSTYYADSVKGRFTISRDKAKNTVYLQMISLKPEDPAVYYCAARWTKKLEYGYWGQGTQVTVSS | low polyreactivity
QVQLVESGGALVQAGGRLRLSCAASVYIQHKYAMGRYRQAPGKERDLVATISGGGGSTYYADSVKGRFTISRDNAKNTVYLQMNSLKPEDTSVYYCAKEYPWLPRSYEYWGQGTQVTVSS | low polyreactivity
QVQLVESGGALVQAGGSLRLNCAASGRIFVYNDMGWYRQAPGNERDLVAAISSVGTTYYADSVKGRFTISRDNAKFTVYLQMKTLKPVETAVYDCDVTRYHSPPRYYFWGQGSQVTVSS | low polyreactivity
QVQLVESGGALVQAGGSLRLSCAASGFTFAFYAMGWYRQAPGKERELVAAISSRGGSTYYADSVKGRFTISRDNAKITVYLQMNSLKPEDTAVYYCAARGYYSVVEYYYWGQGTQVTVSS | high polyreactivity
QVQLVESGGALVQAGGSLRLSCAASGFTFSAYAMGWYRQAPVKEREMVASISRGGITNYADSVKGRFTISRDNAKNTVYLQMNSLQPEDTAFYYCAVDYSFRYDYVQRYYYWGQGTQVSVSS | high polyreactivity
QVQLVESGGALVQAGGSLRLSCAASGIIFTPYAMGWYRQAPGKERQLLAAISWSGGRTYYADSVKGRFTISRDNAKNTVYLQMNSLKPEATAVYYCNARRYWWPHYYEYDYWGQGTHVTVSS | high polyreactivity
QVQLVESGGALVQAGGSLRLSCAASGIIFYDYAMGWYRPAPGKERELVAAITWTGSSTYYADSVKGRFTISRDNAKITVYRQMNCLKQEDTAVSYCAADYWEYSPYEDLTYDYWGQGTQVTVSS | high polyreactivity
QVQLVESGGALVQAGGSLRLSCAASGITFLYYAMGWYRQAPGKERELVAAISGGGASTYYADSVKGRFTISRDNAKNTVYLQMNSLKPEDTAVYYCAAGYRDFFRARFGYWGQGTQVTVSS | high polyreactivity
QVQLVESGGALVQAGGSLRLSCAASGITFWKYTMGWYRQAPGKERELVASIRIGGSTYYADSVKGRFTISRDNAKNTVYLQMNSLKPEDTAVYYCATDSRLWGQGTQVTVSS | high polyreactivity
QVQLVESGGALVQAGGSLRLSCAASGLIFYKYAMGWYRQAPGKERELVASISTGGGSTYYADSVKGRFTISRDNAKNTVYLQMNSLKPEDTAVYYCAARWWRRFRGSHSLYDYWGQGTLVTVSS | high polyreactivity
QVQLVESGGALVQAGGSLRLSCAASGRIFASNGMGWYRQAPGKEREFVAAINRSGGSTYYADSVKGRFTISRDNAKNTVYLQMNSLKPEDTAVYYCNKDYLYSYLWGWKVYSYDYWGQGTQVTVSS | low polyreactivity
QVQLVESGGALVQAGGSLRLSCAASGRIFIVYAMGWSRQAPGKERDLVAAITSSGGGTYYADSVKGRFTISRDNAKNTVYLQMNSLKQEDSAVFYCATRYPYRPGYEYWGQGTQVTVSS | low polyreactivity
QVQLVESGGALVQAGGSLRLSCAASGRTFWDYAMGWYREAPGKERELVAAITWGGGSTYYADSVKGRFTISRDNAKNTVYLQMNSLKPVDTAVYYCAAGRGRHTYNYWGQGTQVTVTS | low polyreactivity

Sequence | polyreactivity (PSR sort gate)
QVQLVESGGALVQAGGSLRLSCAASGRTLGGYAMGWYRQAPGKERELVAAITRRGGTTYYADSVKGRFTISRDNAKNTVYLQMNSLKPEDTAVYYCAKYTVQYAISHYDYWGQGTQVTVSS | high polyreactivity
QVQLVESGGALVQAGGSLRLSCAASGSIFFSYAMGWYRQAPGKERELVAAISTSGGNTYYADSVKGRFTISRDNAKHTVYLQMNSLKPEDTAVYYCNDRGSYPPYRSYGYWGQGTQVTVSS | low polyreactivity
QVQLVESGGALVQAGGSLRLSCAASGSIFGLKDMRWYRPAPGKEREFVAAITWSGGSSTYYADSVKGRFTISRDNAKITVSLQMNSVKTEDTAVYYCAADDRTLPADVDYWGQGTQVTVSS | high polyreactivity
QVQLVESGGALVQAGGSLRLSCAASGSIFWPNAMGWYRPAPGKERELVAAISWGTGSTYYADSVKGRFTISRDNAKNTVYLQMNSLKPEDTAVYYCAADGAYLDPYYDYWGQGTQVTVSS | low polyreactivity
QVQLVESGGALVQAGGSLRLSCAASGSISWKNAMGWYRKAPGKERELVAAISSTVTYYADSVKGRFTISRDNAKNTVYLQMNRLKPADTAVYYCAAEYLAYTTLYTGDYWGQGTQVTVSS | low polyreactivity
QVQLVESGGALVQAGGSLRLSCAASGSTFVYYAMGWYRQAPGKERELVAAISRSGTSTYYADSVKGRFTISRDNAKNTVYLQMNSLKPEDTAVYYCNARKKQGYDYWGQGTQVTVSS | high polyreactivity
QVQLVESGGALVQAGGSLRLSCAASGSTFVYYAMRWYRQTPGKERELVAAIRSDASTNYADSVKGRFTISRDNAKNTVYLQMNILKPEDTAVYYCNTAQLVSDEFDYWGQGTQVTVSS | low polyreactivity
QVQLVESGGALVQAGGSLRLSCAASGYTSILYAMGWYRQAPGKEMELVASITKSGDDTYYADSVKGRFTISRDNAKNTVYLQMNSLKPEDTAVYYCAAEYTYGDYSYVWYDYWGQGTQVTVSS | high polyreactivity
QVQLVESGGALVQAGGSLRLSCAASRITFTDNAMGWYRQAPGKERELVAAISSGASTYYADSVKGRFTISRDNAKNTVYLQMNSLKPEDSAVYYCATRQTYNYPWHYRYYYWGQGTQVTVSS | high polyreactivity
QVQLVESGGALVQAGGSLRLSCAPSGLTFSDYAMGWYRQAPGKEREFVAGISSGGSTYYADSVKGRFTISRDNAKNTVYFQMKSLKPEDTAVYFCAGTRYNSWPIKFDYWGQGTQVTVSS | high polyreactivity
QVQLVESGGALVQAGGSLRLSLADSGMTFSQNAMGWYRQAPGKERELVAAISSSGTSTYYADSVKGRFTISRDNAKNTVYLQMNSLKPEDTAVYYCNAPPGTFQWQGHSDYWGQGTQVTVSS | low polyreactivity
QVQLVESGGALVQAGRSLRLSCAASGRTFWVYAMGWYRQAPGKERELVAAIRWSAGTTYYADSVKGRFTISRDNAKNTVYLQMNSLKPEDTAVYYCAKRRYTAISYGYWGQGTKVTVSS | high polyreactivity
QVQLVESGGALVQARGSLRLSCAASGRTFVWYAMGWYRQAPGKERELVAAITLSGGSTYYADSVKGRFTISRDNAKNTVYLQMTSLKPEDTAVYYCAADGTYRPEDYDYWGQGTKVTVSS | low polyreactivity
QVQLVESGGCIVQAGGSLRLSCAASGRICYTNAMVWYRQAPGKERELVAVISWGGDTTYYADSVKGRFTISRDNANNTVYLQMNSLKPEDTAGYYCNADWGPPYEIYDSWGQGTQVTVSS | low polyreactivity
QVQLVESGGCIVQAGGSLRLSCSASGLLFYINPMGWYRQAPGKEREFVAGINRNGGSTYYADSVKGRFTISRDNALYSVYLQMNSLKPEDTAVYYCNADQYWDRYFSWGQGTQGTVSS | low polyreactivity
QVQLVESGGCLFQAGGSLRLSCAASGFIFGHNAMGWYRQAPGTERELVAAITWSGGRTYYADSVKGRFTISRDNAKNTVYLQMISLKPEDKAVDYCNRRGRWRKYDYWGQGTQVTVSS | high polyreactivity
QVQLVESGGCLLQAGGSLRLSCAASGYTFGKNAMGWYRPAPGKERELVARIRTNGGTTYYADSVKGRFTISRDIAKYTVYLQMYSLKPEDTAVDYCNAYRGYEYDYWGQGTHVTVSS | low polyreactivity
QVQLVESGGCLVHAGGSLRLSCAAYGSILKYNAIGWYIQAPGKERELVAAITSRGGSTYYADSVKGRFTISRDNAKNTVYLQMNSLKPEDTAVYYCNRVYLGYFRYDYWGQGTQVTVSS | high polyreactivity
QVQLVESGGCLVHAGGSLRVSSAASGITFILNAMGWYRQAHGKEREFVAAISTYRGNTYYADSVKGRFTISRDNVKNTFYLEMYSLKPEDTAVYYSNADLYFRQGDVDLLRYVYWVQGTQVTVSS | low polyreactivity
QVQLVESGGCLVKAGGSLRLSCAASGRIFLTNAIGWYRQAPGKESELVADISRAGSTYADSVKGRFTISRDNAKNTVYLQMNSLKPEDTAVYYCSADEYSPGDSRTRYDYWGQGTQVTVSS | low polyreactivity
QVQLVESGGCLVQAAGRLRLSSAASGSTFYGYAMGWYRQAPGKERQLVAAITVRGGSTYYADSVKGRFTISRDNAKNTVYLQMYSLKPEDTAVYYCNAYIVSGFYVYDYWGQGTQVTVSS | high polyreactivity
